How the values were obtained:
[1] = biological target: M2EG peptide conjugated with BSA (influenza A virus, A/New York/687/1995 (H3N2)); assay: peptide-BSA ELISA (++ EC50<10^-9M; + 10^-9M<EC50<10^-8M); settings: remark: other sources report otherwise
[2] = biological target: M2LTGEKS-BSA conjugate (influenza A virus, A/Hong Kong/1074/99 (H9N2)); assay: as above; settings: remark: other sources report otherwise
[3] = biological target: T1, M2KGENS peptide conjugated with BSA (influenza A virus, A/Turkey/VA/158512/02 (H7N2)); assay: as above; settings: remark: other sources report otherwise
[4] = biological target: T2, M2GHTGKS peptide conjugated with BSA (influenza A virus, A/chicken/HongKong/SF1/03 (H9N2)); assay: as above; settings: remark: other sources report otherwise
[5] = biological target: M2-BSA conjugate (influenza A virus, A/Hong Kong/1/68 (H3N2)); assay: as above
[6] = biological target: M2TGEK-BSA conjugate (influenza A virus, A/Netherlands/33/03 (H7N7)); assay: as above; settings: remark: other sources report otherwise
[7] = biological target: T3, M2PHTGS peptide conjugated with BSA (influenza A virus, A/chicken/HongKong/YU427/03 (H9N2)); assay: as above; settings: remark: other sources report otherwise
[8] = biological target: M2TES peptide conjugated with BSA (influenza A virus, A/Viet Nam/1203/2004 (H5N1)); assay: as above; settings: remark: other sources report otherwise
NM16 (influenza A virus) = assay: ELISA on peptide, Ab 10 µg/ml
CM12 (influenza A virus) = assay: ELISA on peptide, Ab 10 µg/ml
NM11 (influenza A virus) = assay: ELISA on peptide, Ab 10 µg/ml
NM13 (influenza A virus) = assay: ELISA on peptide, Ab 10 µg/ml
NM14 (influenza A virus) = assay: ELISA on peptide, Ab 10 µg/ml
CM16 (influenza A virus) = assay: ELISA on peptide, Ab 10 µg/ml
CM13 (influenza A virus) = assay: ELISA on peptide, Ab 10 µg/ml
NM15 (influenza A virus) = assay: ELISA on peptide, Ab 10 µg/ml
CM15 (influenza A virus) = assay: ELISA on peptide, Ab 10 µg/ml
NM17 (influenza A virus) = assay: ELISA on peptide, Ab 10 µg/ml
CM14 (influenza A virus) = assay: ELISA on peptide, Ab 10 µg/ml
[9] = biological target: M2 peptide (influenza A virus, A/Hong Kong/1/68 (H3N2)); assay: ELISA on peptide, Ab 10 µg/ml
NM12 (influenza A virus) = assay: ELISA on peptide, Ab 10 µg/ml
CM17 (influenza A virus) = assay: ELISA on peptide, Ab 10 µg/ml
[10] = biological target: M2DLTGS peptide conjugated with BSA (influenza A virus, A/Hong Kong/485/97 (H5N1)); assay: peptide-BSA ELISA (++ EC50<10^-9M; + 10^-9M<EC50<10^-8M); settings: remark: other sources report otherwise
[11] = biological target: M2SG peptide conjugated with BSA (influenza A virus, A/swine/Tennessee/25/77 (H1N1)); assay: as above; settings: remark: other sources report otherwise
M12 (influenza A virus) = assay: ELISA on peptide, Ab 10 µg/ml
[12] = biological target: T4, M2LTKGS peptide conjugated with BSA (influenza A virus, A/Hong Kong/542/97 (H5N1)); assay: peptide-BSA ELISA; settings: remark: other sources report otherwise
[13] = biological target: T5, M2LTGS peptide conjugated with BSA (influenza A virus, A/Hong Kong/156/97 (H5N1)); assay: peptide-BSA ELISA; settings: remark: other sources report otherwise
[14] = biological target: T1, M2KGENS peptide conjugated with BSA …; assay: peptide-BSA ELISA; settings: remark: other sources report otherwise
[15] = biological target: T2, M2GHTGKS peptide conjugated with BSA …; assay: peptide-BSA ELISA; settings: remark: other sources report otherwise
[16] = biological target: T6, M2KTGEKS peptide conjugated with BSA (influenza A virus, A/Quail/Arkansas/16309-7/94 (H7N3NSA)); assay: peptide-BSA ELISA; settings: remark: other sources report otherwise
[17] = biological target: T3, M2PHTGS peptide conjugated with BSA …; assay: peptide-BSA ELISA; settings: remark: other sources report otherwise
[18] = biological target: T7, M2HTGEKS peptide conjugated with BSA (influenza A virus, A/chicken/California/1002a/00 (H6N2)); assay: peptide-BSA ELISA; settings: remark: other sources report otherwise
[19] = biological target: M2KTGEKS (influenza A virus, A/Quail/Arkansas/16309-7/94 (H7N3NSA)); settings: remark: other sources report otherwise
[20] = biological target: M2GHTGKS (influenza A virus, A/chicken/HongKong/SF1/03 (H9N2)); settings: remark: other sources report otherwise
[21] = biological target: M2LTGS (influenza A virus, A/Hong Kong/156/97 (H5N1)); settings: remark: other sources report otherwise
[22] = biological target: M2KGENS (influenza A virus, A/Turkey/VA/158512/02 (H7N2)); settings: remark: other sources report otherwise
[23] = biological target: M2HTGEKS (influenza A virus, A/chicken/California/1002a/00 (H6N2)); settings: remark: other sources report otherwise
[24] = biological target: M2PHTGS (influenza A virus, A/chicken/HongKong/YU427/03 (H9N2)); settings: remark: other sources report otherwise
[25] = biological target: M2LTKGS (influenza A virus, A/Hong Kong/542/97 (H5N1)); settings: remark: other sources report otherwise
[26] = biological target: T4, M2LTKGS peptide conjugated with BSA …; assay: peptide-BSA ELISA; legend: EC50 > 10^-8M: -; settings: remark: other sources report otherwise
[27] = biological target: T5, M2LTGS peptide conjugated with BSA …; assay: peptide-BSA ELISA; legend: EC50 > 10^-8M: -; settings: remark: other sources report otherwise
[28] = biological target: T1, M2KGENS peptide conjugated with BSA …; assay: peptide-BSA ELISA; legend: EC50 > 10^-8M: -; settings: remark: other sources report otherwise
[29] = biological target: T2, M2GHTGKS peptide conjugated with BSA …; assay: peptide-BSA ELISA; legend: EC50 > 10^-8M: -; settings: remark: other sources report otherwise
[30] = biological target: T6, M2KTGEKS peptide conjugated with BSA …; assay: peptide-BSA ELISA; legend: EC50 > 10^-8M: -; settings: remark: other sources report otherwise
[31] = biological target: T3, M2PHTGS peptide conjugated with BSA …; assay: peptide-BSA ELISA; legend: EC50 > 10^-8M: -; settings: remark: other sources report otherwise
[32] = biological target: T7, M2HTGEKS peptide conjugated with BSA …; assay: peptide-BSA ELISA; legend: EC50 > 10^-8M: -; settings: remark: other sources report otherwise

B1: L66 (antibody, V domains shown)
VH: EVQLVESGGGVVRPGGSLRLSCAASGFTFDDYGMSWVRQAPGKGLEWVSGINWNGGSTGYADSVKGRFTISRDNAKNSLYLQMNSLRAEDTALYYCARDRVTMVRGVIMDYYGMDVWGQGTTVTVSS
VL: QTVVTQEPSLTVSPRGTVTLTCSSSTGAVTSGYYPGWFQLKPGQAPMSLIYSARKKHSWTPARFSGSLLGGKAALTLSGVQPEDEAEYYCLLYYGGAYVFGTGTKVTVLG
[1]
  EC50: 1 to 10 nM
[2]
  EC50: < 1 nM
[3]
  EC50: < 1 nM
[4]
  EC50: < 1 nM
[5]
  EC50: < 1 nM
[6]
  EC50: < 1 nM
[7]
  EC50: < 1 nM
[8]
  EC50: < 1 nM
NM16 (influenza A virus)
  ELISA(OD450): 1.04 OD450
CM12 (influenza A virus)
  ELISA(OD450): 0.08 OD450
NM11 (influenza A virus)
  ELISA(OD450): 0.09 OD450
NM13 (influenza A virus)
  ELISA(OD450): 0.13 OD450
NM14 (influenza A virus)
  ELISA(OD450): 0.22 OD450
CM16 (influenza A virus)
  ELISA(OD450): 0.09 OD450
CM13 (influenza A virus)
  ELISA(OD450): 0.08 OD450
NM15 (influenza A virus)
  ELISA(OD450): 0.2 OD450
CM15 (influenza A virus)
  ELISA(OD450): 0.09 OD450
NM17 (influenza A virus)
  ELISA(OD450): 0.99 OD450
CM14 (influenza A virus)
  ELISA(OD450): 0.08 OD450
[9]
  ELISA(OD450): 0.51 OD450
NM12 (influenza A virus)
  ELISA(OD450): 0.12 OD450
CM17 (influenza A virus)
  ELISA(OD450): 0.12 OD450

B2: C40G1 (antibody, V domains shown)
VH: QLQLQESGPGLVKPSETLSLTCTVSGGSISSSFYYCGWIRQPPGKGLEWIGSIYYRGSTYYNPSLKSRVTISVDTSKNQFSLKLSSVTAADTAVYYCARRVTMVRGVKGDYFDYWGQGTLVTVSS
VL: DIQMTQSPSSLSASVGDRVTITCRASQGISSWLAWYQQKPEKVPKSLIYAASSLQSGVPSRFSGSGSGTDFTLTISSLQPEDFATYYCQQYNYYPLTFGGGTKVEIKR
[1]
  EC50: < 1 nM
[10]
  EC50: 1 to 10 nM
[11]
  EC50: < 1 nM
[8]
  EC50: < 1 nM
CM12 (influenza A virus)
  ELISA(OD450): 0.1 OD450
NM11 (influenza A virus)
  ELISA(OD450): 0.31 OD450
M12 (influenza A virus)
  ELISA(OD450): 2.71 OD450
NM13 (influenza A virus)
  ELISA(OD450): 2.41 OD450
NM14 (influenza A virus)
  ELISA(OD450): 2.49 OD450
CM16 (influenza A virus)
  ELISA(OD450): 0.76 OD450
CM13 (influenza A virus)
  ELISA(OD450): 0.11 OD450
CM15 (influenza A virus)
  ELISA(OD450): 0.11 OD450
CM14 (influenza A virus)
  ELISA(OD450): 0.1 OD450
NM12 (influenza A virus)
  ELISA(OD450): 0.12 OD450
CM17 (influenza A virus)
  ELISA(OD450): 2.78 OD450
[12]
  EC50: > 10 nM
[13]
  EC50: > 10 nM
[14]
  EC50: > 10 nM
[15]
  EC50: > 10 nM
[16]
  EC50: > 10 nM
[17]
  EC50: > 10 nM
[18]
  EC50: > 10 nM
[19]
  % of O.D. on M2 (SEQ ID NO:1): < 10%
[20]
  % of O.D. on M2 (SEQ ID NO:1): < 10%
[21]
  % of O.D. on M2 (SEQ ID NO:1): < 10%
[22]
  % of O.D. on M2 (SEQ ID NO:1): < 10%
[23]
  % of O.D. on M2 (SEQ ID NO:1): < 10%
[24]
  % of O.D. on M2 (SEQ ID NO:1): < 10%
[25]
  % of O.D. on M2 (SEQ ID NO:1): < 10%
[26]
  EC50: > 10 nM
[27]
  EC50: > 10 nM
[28]
  EC50: > 10 nM
[29]
  EC50: > 10 nM
[30]
  EC50: > 10 nM
[31]
  EC50: > 10 nM
[32]
  EC50: > 10 nM
